Source: PMC2922993 (Nature chemical biology, 2010)
Non-standard residues stand in square brackets, D forms with d. No end group written: not given here. Lys(Me3) = C[N+](C)(C)CCCC[C@H](N)C(=O)O; Arg(Me2s) = CN=C(NC)NCCC[C@H](N)C(=O)O

T1: inhibitor of growth 2 (ING2) PHD finger
T1 sequence (Q9H160 whole entry, species assumed, looked up): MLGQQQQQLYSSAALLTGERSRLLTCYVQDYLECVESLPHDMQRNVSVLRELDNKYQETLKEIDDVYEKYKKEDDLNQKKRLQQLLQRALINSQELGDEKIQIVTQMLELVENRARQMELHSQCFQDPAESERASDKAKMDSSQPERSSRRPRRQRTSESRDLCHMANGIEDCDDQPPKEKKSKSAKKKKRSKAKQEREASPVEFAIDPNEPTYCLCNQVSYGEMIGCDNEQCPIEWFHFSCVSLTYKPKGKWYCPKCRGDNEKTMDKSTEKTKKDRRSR


Legend:
[1] = molecular target: T1, inhibitor of growth 2 (ING2) PHD finger; experiment: ITC
[2] = molecular target: BRAF-HDAC Complex 80 (BHC80)-PHD finger (UniProt Q96BD5 486-543); experiment: ITC
BRAF-HDAC Complex 80 (BHC80)-PHD finger, sequence (Q96BD5 486-543, one chain of several): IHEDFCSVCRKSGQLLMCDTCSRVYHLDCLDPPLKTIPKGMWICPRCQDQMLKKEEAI

| Binder | Kd [1] | Kd [2] |
| --- | --- | --- |
| ART[Lys(Me3)]QTARKSTG [H3K4me3 peptide (ITC)] | 0.98 µM |  |
| A[Arg(Me2s)]TKQTARKSTG [H3R2me2s- modified peptide] |  | 57.2 µM |
| A[Arg(Me2s)]T[Lys(Me3)]QTARKSTG [H3 peptide bearing K4me3 and R2me2s marks] | 17.3 µM |  |
